Results as given in paper PMC9972587, “SIRT2-PFKP interaction dysregulates phagocytosis in macrophages with acute ethanol-exposure” (Frontiers in Immunology, 2022).

Biological target: T1, Human recombinant PFKP protein (His and GST tag) (human, UniProt Q01813 1-784)
T1 construct: Phosphofructokinase, platelet isoform (PFKP), human, recombinant; also called human PFKP protein; source: bought: Sino Biological (CAT# 15003-H20B)
T1 sequence (looked up): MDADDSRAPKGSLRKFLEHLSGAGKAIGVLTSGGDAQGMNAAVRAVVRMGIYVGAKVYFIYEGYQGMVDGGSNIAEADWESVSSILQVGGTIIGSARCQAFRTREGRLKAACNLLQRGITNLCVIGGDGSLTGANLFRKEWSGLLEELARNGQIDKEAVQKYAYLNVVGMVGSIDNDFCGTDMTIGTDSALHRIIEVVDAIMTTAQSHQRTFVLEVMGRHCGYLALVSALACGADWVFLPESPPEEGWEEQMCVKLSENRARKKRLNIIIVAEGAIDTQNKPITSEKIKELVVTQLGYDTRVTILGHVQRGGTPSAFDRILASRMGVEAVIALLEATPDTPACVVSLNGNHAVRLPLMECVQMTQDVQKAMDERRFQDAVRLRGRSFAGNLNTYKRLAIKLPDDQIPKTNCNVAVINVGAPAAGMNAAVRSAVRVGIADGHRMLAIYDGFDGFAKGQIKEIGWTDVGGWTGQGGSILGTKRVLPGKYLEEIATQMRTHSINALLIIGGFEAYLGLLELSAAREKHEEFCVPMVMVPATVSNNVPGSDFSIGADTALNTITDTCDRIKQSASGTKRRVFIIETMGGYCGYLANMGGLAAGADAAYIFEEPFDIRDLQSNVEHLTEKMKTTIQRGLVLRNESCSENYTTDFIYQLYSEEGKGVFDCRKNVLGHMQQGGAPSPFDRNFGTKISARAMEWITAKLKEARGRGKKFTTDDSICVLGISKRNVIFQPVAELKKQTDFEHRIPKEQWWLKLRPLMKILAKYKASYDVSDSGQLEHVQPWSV
Assay: SPR; Biacore S200; human SIRT2 immobilised on CM5 chip by amine coupling (10 mM sodium acetate pH 4.0 with 20 uM NAD+); PFKP injected at 15.62-1000 nM, contact time 120 s, 15 uL/minute; running buffer HBS-P+ pH 7.4; steady state equilibrium binding model
Conditions: both partners purified

- Kd: 0.1 µM
B1: Recombinant human SIRT2 protein (enzyme, UniProt Q8IXJ6 1-389, looked up)
chain: MAEPDPSHPLETQAGKVQEAQDSDSDSEGGAAGGEADMDFLRNLFSQTLSLGSQKERLLDELTLEGVARYMQSERCRRVICLVGAGISTSAGIPDFRSPSTGLYDNLEKYHLPYPEAIFEISYFKKHPEPFFALAKELYPGQFKPTICHYFMRLLKDKGLLLRCYTQNIDTLERIAGLEQEDLVEAHGTFYTSHCVSASCRHEYPLSWMKEKIFSEVTPKCEDCQSLVKPDIVFFGESLPARFFSCMQSDFLKVDLLLVMGTSLQVQPFASLISKAPLSTPRLLINKEKAGQSDPFLGMIMGLGGGMDFDSKKAYRDVAWLGECDQGCLALAELLGWKKELEDLVRREHASIDAQSGAGVPNPSTSASPKKSPPPAKDEARTTEREKPQ
notes: Sirtuin 2 (SIRT2), human, recombinant; also called human SIRT2 ligand; source: bought: Sigma-Aldrich (CAT# SRP0116)
